B1: VH:VL chains; a variant is named by its letters at X, in order (parent)
chain 1: QVQLVQSGAEVKKPGASVKVSCKASGYTFTDYXMHWVRQAPGQGLEWMGXVNPNXXXTTYNQKFEGRVTMTTDTSTSTAYMELRSLRSDDTAVYYCARXNXLDXWGQGTTVTVSS
chain 2: DIQMTQSPSSLSASVGDRVTITCSVSSSVSSIYLHWYQQKPGKAPKLLIYSTSNLASGVPSRFSGSGSGTDFTLTISSLQPEDFATYYCQVYSGYPLTFGGGTKVEIK

Variants of: B1
Test: yeast display scFab, FACS + sequencing
How it was run: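 Non-specific binding was called from deep sequencing of sorted yeast cells displaying a heavy-chain CDR mutant scFab library. Cells labelled with anti-Myc and biotinylated ovalbumin (260 μg/mL in PBSB, 3 h, room temperature) or soluble membrane proteins (130 μg/mL, 20 min on ice) were FACS-sorted, collecting the top 25% and bottom 10% of binders from two replicates. A sequence was positive when present in ≥3 of 4 pooled positive samples and absent from all negatives, and negative under the converse rule.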

Variant	non-specific binding call
VRGTGVAV	binds
YRGRDFVD	binds
YRKGGAGF	binds
YRKGGAGS	binds
FRGRGAGS	binds
FRGRGAGA	binds
VRGRSSAA	binds
YRKEGAAA	binds
YRGRTAAD	binds
YRGRTAAV	binds
YRGRTAAA	binds
YRGRTAAF	binds
YRGRTAAY	binds
YRKESAVY	binds
ARGRSDVA	no binding
YRGRDSSS	binds
YRGRSFAV	binds
DRGRSDVA	no binding
FRGRSYVD	binds
YRGRGSAF	binds
YRGRGSAY	binds
FRGRDFVS	binds
FRGRDFVA	binds
SRGRGYGD	binds

Variant	non-specific binding call
YRKGGAAS	binds
YRKGGAAV	binds
YRKGGAAY	binds
VRGTDAVV	no binding
YRGRGYVS	binds
VRGTGDWD	no binding
YRGRDSWD	binds
VRGTGFGA	binds
FRGRDVVV	binds
SRKEGAAY	no binding
YRGRGYSV	binds
YRGTGSVD	binds
FRGRDYAA	binds
YRGRGFLV	binds
YRGRSALA	binds
YRGRGVAV	binds
YRGRGVAA	binds
SRGRGVGA	binds
YRGRSSLY	binds
FRGRGSLF	binds
FRGRGSLV	binds
FRGRGSLS	binds
SRGRGSWD	binds
FRGRGVGA	binds

Variant	non-specific binding call
FRGRGVGD	binds
YRGRGAVF	binds
FRGTSFGD chain 1 T58I	binds
ARGRGAWV	binds
DRGRDSSA	no binding
YRGRGYGF	binds
YRGRGYGA	binds
YRGRGYGS	binds
FRGRGSWV	binds
FRGRGSWS	binds
FRGRGYGA	binds
ARGRGSAA	binds
FRGRGSGV	binds
FRGRGSGF	binds
YRGRSFGV	binds
FRGRGDWV	no binding
VRGRGFLD	binds
FRKAAVAV	binds
YRGRGYAA	binds
YRGRGYAY	binds
FRGRDFAD	binds
YRGRSSWS	binds
YRGRSSWD	binds
YRGRGFGV	binds

Variant	non-specific binding call
YRGRGFGF	binds
YRGRGFGS	binds
YRGRGFGY	binds
FRGRGDGY	binds
FRGRGDGD	binds
YRGRGSVY	binds
FRGRGALY	binds
FRGRGALF	binds
FRGRGALS	binds
FRGRGALA	binds
FRGRDFSA	binds
FRGRDFGS	binds
FRGRSSLA	binds
VRGTGSGA	binds
VRGTGSAD	binds
ARGRSDAV	no binding
SRGRGSLS	binds
DRGRGDWV	no binding
VRGRGVGY	binds
FRGRDSWS	binds
YRKEAAAA	binds
YRGRGSWY	binds
YRGRSAWF	binds
YRGRSAWD	binds

Variant	non-specific binding call
YRGRSAWV	binds
YRKENYGD	binds
SRGRGAGF	binds
SRGRGSGA	binds
YRGRTAGV	binds
VRGRGDLA	no binding
YRKGGAVV	binds
YRKGGAVD	binds
YRGRGVGS	binds
YRGRGVGD	binds
YRGRGVGF	binds
YRGRGVGY	binds
YRGRGVGA	binds
FRGRGAWF	binds
FRGRGAWV	binds
FRGRGAWD	binds
FRGRGAWS	binds
SRGRGAVD	binds
SRGRGAVS	binds
FRGRSSGV	binds
YRGRGVLF	binds
VRGRSSLF	binds
DRGRDFGV	no binding
FRGRDSSF	binds

Variant	non-specific binding call
YRGRGYWV	binds
YRGRGYWY	binds
YRGRGYWA	binds
FRGRGYWV	binds
YRGRSAGY	binds
YRGRSAGV	binds
YRGRSAGA	binds
YRGRSAGS	binds
VRGRSAWS	no binding
YRGRGFAY	binds
YRGRGFAS	binds
YRGRGFAD	binds
YRKGGAWV	binds
YRKGGAWF	binds
VRGRGVSY	binds
YRGRGVWV	binds
ARGRGAAS	binds
ARGRGAAD	binds
YRGRGFWF	binds
YRKGAASD	binds
DRGRGSAD	binds
YRGRDSVS	binds
YRGRGSSF	binds
YRKGASVD	binds

Variant	non-specific binding call
YRGRDVGY	binds
FRGRSSVA	binds
YRKGASAF	binds
YRGRGVVD	binds
YRGRGVVY	binds
ARGRGSVA	binds
YRGRDSAS	no binding
SRGRGSVD	binds
YRKGDSLD	binds
FRGRDYGS	binds
FRGRDYGF	binds
FRGRDYGY	binds
FRGRDYGD	binds
FRGRDYGA	binds
FRGRGFGV	binds
SRGRGFAA	binds
FRGTGFVD	binds
SRGRGFVA	binds
SRGRGSSS	binds
ARGRGSSS	binds
YRGRGVSD	binds
YRGRGVSS	binds
FRGRGDVD	binds
FRGRGDVV	binds

Variant	non-specific binding call
FRKGDASD	binds
DRGRGDVV	no binding
YRGRGDSV	no binding
YRKGDAGD	binds
VRGTGYAS	binds
YRGRGFSD	binds
YRGRGFSA	binds
YRGRDYGV	binds
FRGRGAVY	binds
YRKEAAWV	binds
VRGTDAGV	no binding
YRKGDSGD	binds
FRGRGYAV	binds
YRGRSSSV	binds
FRGRGDLS	binds
YRGRSSAA	binds
YRKGAALA	binds
VRGRSSGS	binds
VRGRSSVV	no binding
YRGRTSLD	binds
SRGRGYSV	binds
VRGRGFVV	binds
FRGRGSAY	binds
FRGRGSAA	binds

Variant	non-specific binding call
FRGRGSAV	binds
FRGRGSAD	binds
FRGRGSAF	binds
VRGRGFAA	binds
FRGRSSAA	binds
FRGRSSAF	binds
FRGRGFVA	binds
FRGRGYVV	binds
FRGRGYVA	binds
VRGRDYGD	binds
VRGRGYGV	binds
FRGRGFLS	binds
FRGRGFSV	binds
FRGRGFSA	binds
VRGTGAVY	binds
SRGRGVLV	binds
SRKGAASD	binds
FRKGGAAA	binds
VRGRDFGV	binds
SRGRGAWA	binds
SRGRGAWS	binds
SRGRGAWY	binds
SRGRGAWF	binds
SRGRGAWD	binds

Variant	non-specific binding call
YRGRGFVA	binds
YRGRGFVY	binds
YRGRGFVV	binds
YRGRGFVD	binds
FRGRDSGY	binds
YRGRGAWF	binds
FRGRDSVA	binds
VRGTGSWD	binds
FRGTGSGD	binds
VRGRGVAV	binds
FRGTGSWA	binds
FRGRGAAS	binds
FRGRGAAY	binds
FRGRGSVY	binds
FRGRGSVS	binds
FRGRGSVV	binds
FRGRGSVF	binds
FRGRGSVD	binds
VRGRSDWV	no binding
YRGRSASS	binds
YRGRSASV	binds
YRGRSASY	binds
FRGRDFLF	binds
FRGRDFLD	binds

Variant	non-specific binding call
FRKGGAGS	binds
YRKGAAVV	binds
FRGRGSSA	binds
FRGRGSSY	binds
FRGRGSSD	binds
VRGRGALF	binds
VRGRGALS	binds
FRGRGASV	binds
FRGRGASD	binds
VRGRGYAA	binds
YRGRGALS	binds
YRGRGALF	binds
YRGRGASF	binds
YRGTGAGV	binds
YRGRSAAY	binds
FRGRDVAV	binds
VRGRSDVF	no binding

Reference: the emibetuzumab library of Makowski et al. (2022)
